Patent publication US6548282B2, “Phytase and gene encoding said phytase” (priority 1996, dated 2003)

Tests used:
[1] = test system: wheat bran-derived phytase; settings: Agr. Biol. Chem., 26, 794-803 (1962); read-out: Michaelis constant (Km); cited from earlier work
[2] = test system: Escherichia coli-derived phytase; settings: read-out: Michaelis constant (Km); cited from earlier work
[3] = test system: Bacillus subtilis-derived phytase; settings: read-out: Michaelis constant (Km); cited from earlier work
[4] = test system: Aspergillus oryzae-derived phytase; settings: read-out: Michaelis constant (Km); cited from earlier work
[5] = test system: Bacillus natto-derived phytase; settings: read-out: Michaelis constant (Km); cited from earlier work
[6] = test system: Aspergillus ficcum-derived phytase; settings: WO 91/05053; read-out: Michaelis constant (Km); cited from earlier work
[7] = test system: maize (Zea mays)-derived phytase; settings: read-out: Michaelis constant (Km); cited from earlier work
[8] = test system: rice bran-derived phytase; settings: Agr. Biol. Chem., 53, 1475-1483; read-out: Michaelis constant (Km); cited from earlier work
[9] = substrate: O=P(O)(O)O[C@H]1[C@H](OP(=O)(O)O)[C@@H](OP(=O)(O)O)[C@H](OP(=O)(O)O)[C@@H](OP(=O)(O)O)[C@H]1OP(=O)(O)O; experiment: Km of novel phytase from Aspergillus niger SK57 (standard assay, Lineweaver-Burk plot); type: biochemical; settings: other: sodium phytate 0.00625 to 1.25 mM, pH 5.5, 37° C.
Protocol: (§1) 0.5 ml of 0.2 M acetate buffer, pH 5.5 (sodium acetate) containing 2.5 mM sodium phytate (Sigma) is maintained at 37° C. for 5 minutes, and 0.5 ml of an enzyme solution is added to initiate the reaction. After maintained at 37° C. for 10 minutes, 2 ml of a stop solution of enzyme reaction (i.e., mixture of 1:1:2 10 mM ammonium molybdate, 5 N sulfuric acid and acetone) is added to stop the reaction, and 0.1 ml of 1 M citric acid is further added and mixed. The absorbance of this solution is determined at 380 nm on a spectrophotometer (Hitachi U-2000). One unit of phytase activity is defined as the amount of enzyme allowing to release 1 μmol inorganic phosphorus for 1 minute at pH 5.5 at 37° C.
(§2) The Km value of the novel phytase can be determined by the Lineweaver-Burk plot in which the activity of the novel phytase, as determined by the standard assay, is plotted at varying concentrations of the substrate.
(§3) (1) Km value: The activity was determined according to the standard assay where the substrate concentration was varied in the range of 0.00625 to 1.25 mM. The results were graphted out in Lineweave-Burk plot so that Km values were determined.

[10] = substrate: O=P(O)(O)O[C@H]1[C@H](OP(=O)(O)O)[C@@H](OP(=O)(O)O)[C@H](OP(=O)(O)O)[C@@H](OP(=O)(O)O)[C@H]1OP(=O)(O)O; experiment: Km of novel phytase from transformant Aspergillus oryzae MO-PG3 (standard assay, Lineweaver-Burk plot); type: biochemical; settings: other: sodium phytate 0.00625 to 1.25 mM, pH 5.5, 37° C.
Protocol: as §1, §2, §3

[11] = Specific activity of purified phytase, standard assay; type: biochemical; settings: after purification; pH 5.5, 37° C.
Protocol: as §1
Ten g of the crude phytase powder obtained in Example 6-2 was dissolved in 50 ml of acetate buffer A [50 mM acetic acid/50 mM sodium acetate (pH 5.5)] and then desalted through an Ultrafilter (cut off molecular weight 10,000; Sartrius). The resulting enzyme solution was applied to a DIAION HPA-75 (Mitsubishi Corporation) column (5.6 cm×30 cm) previously equilibrated with acetate buffer A. After washed with acetate buffer A, novel phytase was eluted with acetate buffer B [50 mM acetic acid/50 mM sodium acetate (pH 4.8)] containing 0.3 M NaCl. […]

[12] = Substrate specificity, standard assay; type: biochemical
Protocol: as §1
(7) Substrate specificity: The activity was determined by the standard assay method wherein the concentration of substrates was adjusted at 1 mM and 10 mM.

[13] = substrate: O=P(O)(O)O[C@H]1[C@H](OP(=O)(O)O)[C@@H](OP(=O)(O)O)[C@H](OP(=O)(O)O)[C@@H](OP(=O)(O)O)[C@H]1OP(=O)(O)O; experiment: Km of novel phytase from transformant Aspergillus nidulans M-PA1 (standard assay, Lineweaver-Burk plot); type: biochemical; settings: other: sodium phytate 0.00625 to 1.25 mM, pH 5.5, 37° C.
Protocol: as §1, §2, §3

[14] = substrate: O=P(O)(O)O[C@H]1[C@H](OP(=O)(O)O)[C@@H](OP(=O)(O)O)[C@H](OP(=O)(O)O)[C@@H](OP(=O)(O)O)[C@H]1OP(=O)(O)O; experiment: Km of novel phytase from transformant Aspergillus niger MH-PA1 (standard assay, Lineweaver-Burk plot); type: biochemical; settings: other: sodium phytate 0.00625 to 1.25 mM, pH 5.5, 37° C.
Protocol: as §1, §2, §3

O=P(O)(O)O[C@H]1[C@H](OP(=O)(O)O)[C@@H](OP(=O)(O)O)[C@H](OP(=O)(O)O)[C@@H](OP(=O)(O)O)[C@H]1OP(=O)(O)O [phytic acid]
Km [1]: 570 µM | Km [2]: 130 µM | Km [3]: 150 µM | Km [4]: 330 µM | Km [5]: 500 µM | Km [6]: 250 µM | Km [7]: 117 µM | Km [8]: 170 µM

B1: novel phytase derived from Aspergillus niger SK57, SEQ ID NO:1 (Aspergillus niger CBS 513.88) (protein)
chain: SRNQSTCDTVDQGYQCFSETSHLWGQYAPFFSLANKSAISPDVPAGCHVTFAQVLSRHGARYPTDSKGKKYSALIEEIQQNATTFEGKYAFLKTYNYSLGADDLTPFGEQELVNSGVKFYQRYESLTRNIVPFIRSSGSSRVIASGNKFIEGFQSTKLKDPRAQPGQSSPKIDVVISEASTSNNTLDPGTCTVFEDSELADDIEANFTATFVPSIRQRLENDLSGVSLTDTEVTYLMDMCSFDTISTSTVDTKLSPFCDLFTHEEWINYDYLQSLNKYYGHGAGNPLGPTQGVGYANELIARLTHSPVHDDTSSNHTLDSNPATFPLNSTLYADFSHDNGIISILFALGLYNGTKPLSSTTAENITQTDGFSSAWTVPFASRMYVEMMQCQSEQEPLVRVLVNDRVVPLHGCPVDALGRCTRDSFVKGLSFARSGGDWGECFA
Km [9]: 13 µM

B2: novel phytase (SK57 gene, pANPHY1) derived from Aspergillus oryzae MO-PG3 (Aspergillus niger CBS 513.88) (protein)
chain: B1 chain
notes: secreted, mature, purified, glycosylated
Km [10]: 28 µM

B3: novel phytase from Aspergillus niger SK57: Phytase purified from wheat bran culture of Aspergillus niger SK57 (FERM BP-5473); amino acid sequence SEQ ID NO:1 (protein)
chain: B1 chain
specific activity [11]: 158 U/mg | Relative activity (100%) ([12]; substrate ATP 1 mM): 1.6% | Relative activity (100%) ([12]; substrate ATP 10 mM): 1.2% | Relative activity (100%) ([12]; substrate D-glucose-6-phosphate 1 mM): 0.45% | Relative activity (100%) ([12]; substrate D-glucose-6-phosphate 10 mM): 4.2% | Relative activity (100%) ([12]; substrate D-myo-inositol 1,4,5-tris-phosphate 1 mM): 0.71% | Relative activity (100%) ([12]; substrate D-myo-inositol 1,4,5-tris-phosphate 10 mM): 5.8% | Relative activity (100%) ([12]; substrate fructose-6-phosphate 1 mM): 0.15% | Relative activity (100%) ([12]; substrate fructose-6-phosphate 10 mM): 0.93% | Relative activity (100%) ([12]; substrate glycerophosphoric acid 1 mM): 0.11% | Relative activity (100%) ([12]; substrate glycerophosphoric acid 10 mM): 0.96% | Relative activity (100%) ([12]; substrate p-nitrophenyl phosphate 1 mM): 1.9% | Relative activity (100%) ([12]; substrate p-nitrophenyl phosphate 10 mM): 10% | Relative activity (100%) ([12]; substrate phytic acid 1 mM): 100% | substrate specificity (in words) ([12]; substrates of Table 1 at 1 mM and 10 mM): acted with low specificity on the substrates shown in Table 1, but it had less activity on substrates other than phytic acid

B4: novel phytase (SK57 gene, pANPHY1) derived from Aspergillus nidulans M-PA1 (Aspergillus niger CBS 513.88) (protein)
chain: B1 chain
notes: as for B2
Km [13]: 20 µM

B5: novel phytase (SK57 gene, pANPHY1) derived from Aspergillus niger MH-PA1 (Aspergillus niger CBS 513.88) (protein)
chain: B1 chain
notes: secreted, mature, purified
Km [14]: 30 µM
